The assay concerns the target T1, gD-huPSCA expressed on the surface of transfected cells (Herpes Simplex virus; human, UniProt O43653 12-114).
T1 construct: domain: 25 amino acids of the mature gD; also called gD-PSCA; gDPSCA
Put plainly: cold competition of 125I-Mab 2403 by unlabeled Mab 2403 on PC3.gD.hu PSCA cells, four parameter fit (m3 = IC50).

B1: anti-PSCA monoclonal antibody 5F2.4H4.1E3 (antibody, V domains shown)
VH: QVQVQQPGAELVKPGAPVKLSCKASGYTFTNYWLNWVKQRPGRGLEWIGRIDPSDSEIHYDQKFKDKATLTVDKSSSTAYIQLSSLTSEDSAVYYCALTGIYAMAYWGQGTSVTVSS
VL: DIVMTQAAPSVPVTPGESVSISCRSSKSLLHSNGNTYLYWFLQRPGQSPQLLIYRMSNLASGVPDRFSGSGSGTAFTLRISRVEAEDVGVYYCLQHLEYPYTFGGGTKLELKR
notes: also called 2403; Mab 2403
With B1, the IC50 stood at 13 nM.

The values above are taken from patent EP1226177B1 (GENENTECH, INC., dated 2008).
